Biological target: T1, EnvZ (Escherichia coli K12) (UniProt P0AEJ4)
T1 sequence: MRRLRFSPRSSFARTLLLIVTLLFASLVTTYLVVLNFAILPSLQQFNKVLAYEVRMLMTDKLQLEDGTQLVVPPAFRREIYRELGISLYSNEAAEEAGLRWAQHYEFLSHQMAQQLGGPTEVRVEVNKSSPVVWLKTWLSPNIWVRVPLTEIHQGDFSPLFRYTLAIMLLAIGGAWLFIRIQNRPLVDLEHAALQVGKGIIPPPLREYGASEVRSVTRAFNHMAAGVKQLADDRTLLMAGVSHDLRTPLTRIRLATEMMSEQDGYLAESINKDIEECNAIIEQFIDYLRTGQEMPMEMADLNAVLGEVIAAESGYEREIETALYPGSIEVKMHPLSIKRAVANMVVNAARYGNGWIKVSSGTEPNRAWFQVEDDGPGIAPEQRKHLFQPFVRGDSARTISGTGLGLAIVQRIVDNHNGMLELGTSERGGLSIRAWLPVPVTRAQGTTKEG
Test: EMSA

With “CACGGCGTGTTCTTCCGACAACGTTCTTAAAAAAACTTCTCTCTCCCAGGTCACACCAGTCACAGAGATTGGCTGTGAGTGTCGCTGTGCACAAACCGCGCACAGACTCATACAGTCCCGGCGGTTCCGTTCACAACCCACGCCTCATCCCCACCGACCCAACACACACCCCACAGTCATCGCCACCGTCATCCACAACTCCGAC (double strand) [oriC]” as the sequence, how does the binding read?
The binding was “no binding”.

— paper PMC11374129
